Columns and labels:
Assay in all cases: PamChip microarray peptide phosphorylation
FES^WT = target: T1, FES^WT (Homo sapiens, UniProt P07332); assay type: biochemical; conditions: peptide substrate phosphorylated by FES - WT
T1 construct: human FES cDNA encoding residues 448–822 or human FER cDNA encoding residues 448–820 was amplified by PCR; made in house; host or cells: E. coli BL21(DE3), co-expressing YopH phosphatase

CSK = CSK (Homo sapiens, UniProt P41240); conditions: peptide substrate phosphorylated by CSK
SYK = SYK (Homo sapiens, UniProt P43405); conditions: peptide substrate phosphorylated by SYK
LYN = LYN (Homo sapiens, UniProt P07948); conditions: peptide substrate phosphorylated by LYN
ABL1 = ABL1 (Homo sapiens, UniProt P00519); conditions: peptide substrate phosphorylated by ABL1
FGR = FGR (Homo sapiens, UniProt P09769); conditions: peptide substrate phosphorylated by FGR

T1 sequence (P07332 448-822): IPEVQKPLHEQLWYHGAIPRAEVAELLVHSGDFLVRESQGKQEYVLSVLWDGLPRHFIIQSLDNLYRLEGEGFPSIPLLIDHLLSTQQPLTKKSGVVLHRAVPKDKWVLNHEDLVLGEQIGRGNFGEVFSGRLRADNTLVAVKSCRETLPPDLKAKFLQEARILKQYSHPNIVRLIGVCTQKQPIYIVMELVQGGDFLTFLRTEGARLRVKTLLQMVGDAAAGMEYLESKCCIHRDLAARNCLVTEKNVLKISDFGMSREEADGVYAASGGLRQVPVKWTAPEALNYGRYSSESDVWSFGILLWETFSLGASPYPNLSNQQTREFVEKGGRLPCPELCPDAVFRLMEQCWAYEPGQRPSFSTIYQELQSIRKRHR
Sequence of CSK (P41240 whole entry): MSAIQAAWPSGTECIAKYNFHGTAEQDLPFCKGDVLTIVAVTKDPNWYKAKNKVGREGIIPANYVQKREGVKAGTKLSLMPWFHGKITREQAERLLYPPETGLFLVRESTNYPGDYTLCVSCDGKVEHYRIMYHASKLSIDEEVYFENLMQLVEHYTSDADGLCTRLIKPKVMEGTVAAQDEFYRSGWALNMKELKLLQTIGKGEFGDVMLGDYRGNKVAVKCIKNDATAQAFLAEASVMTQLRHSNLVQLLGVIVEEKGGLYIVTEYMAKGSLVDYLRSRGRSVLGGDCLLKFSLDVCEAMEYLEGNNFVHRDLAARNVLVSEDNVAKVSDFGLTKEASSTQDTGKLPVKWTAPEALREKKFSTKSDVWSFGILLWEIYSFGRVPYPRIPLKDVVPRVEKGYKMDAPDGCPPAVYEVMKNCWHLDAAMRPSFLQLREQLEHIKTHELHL
Sequence of LYN (P07948 whole entry): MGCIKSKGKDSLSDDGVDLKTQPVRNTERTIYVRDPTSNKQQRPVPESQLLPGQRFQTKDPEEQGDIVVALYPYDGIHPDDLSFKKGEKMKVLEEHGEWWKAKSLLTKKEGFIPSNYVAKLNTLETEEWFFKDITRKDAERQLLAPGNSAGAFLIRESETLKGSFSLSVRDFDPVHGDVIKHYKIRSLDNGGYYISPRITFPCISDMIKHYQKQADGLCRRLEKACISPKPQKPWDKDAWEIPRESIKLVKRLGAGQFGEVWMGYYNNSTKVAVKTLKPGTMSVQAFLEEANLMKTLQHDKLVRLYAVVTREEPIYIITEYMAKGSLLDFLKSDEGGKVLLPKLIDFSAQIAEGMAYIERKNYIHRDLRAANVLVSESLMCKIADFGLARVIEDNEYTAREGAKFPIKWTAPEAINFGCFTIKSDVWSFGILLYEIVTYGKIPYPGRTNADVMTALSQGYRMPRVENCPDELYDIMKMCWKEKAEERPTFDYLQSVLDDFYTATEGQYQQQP
Sequence of ABL1 (P00519 whole entry): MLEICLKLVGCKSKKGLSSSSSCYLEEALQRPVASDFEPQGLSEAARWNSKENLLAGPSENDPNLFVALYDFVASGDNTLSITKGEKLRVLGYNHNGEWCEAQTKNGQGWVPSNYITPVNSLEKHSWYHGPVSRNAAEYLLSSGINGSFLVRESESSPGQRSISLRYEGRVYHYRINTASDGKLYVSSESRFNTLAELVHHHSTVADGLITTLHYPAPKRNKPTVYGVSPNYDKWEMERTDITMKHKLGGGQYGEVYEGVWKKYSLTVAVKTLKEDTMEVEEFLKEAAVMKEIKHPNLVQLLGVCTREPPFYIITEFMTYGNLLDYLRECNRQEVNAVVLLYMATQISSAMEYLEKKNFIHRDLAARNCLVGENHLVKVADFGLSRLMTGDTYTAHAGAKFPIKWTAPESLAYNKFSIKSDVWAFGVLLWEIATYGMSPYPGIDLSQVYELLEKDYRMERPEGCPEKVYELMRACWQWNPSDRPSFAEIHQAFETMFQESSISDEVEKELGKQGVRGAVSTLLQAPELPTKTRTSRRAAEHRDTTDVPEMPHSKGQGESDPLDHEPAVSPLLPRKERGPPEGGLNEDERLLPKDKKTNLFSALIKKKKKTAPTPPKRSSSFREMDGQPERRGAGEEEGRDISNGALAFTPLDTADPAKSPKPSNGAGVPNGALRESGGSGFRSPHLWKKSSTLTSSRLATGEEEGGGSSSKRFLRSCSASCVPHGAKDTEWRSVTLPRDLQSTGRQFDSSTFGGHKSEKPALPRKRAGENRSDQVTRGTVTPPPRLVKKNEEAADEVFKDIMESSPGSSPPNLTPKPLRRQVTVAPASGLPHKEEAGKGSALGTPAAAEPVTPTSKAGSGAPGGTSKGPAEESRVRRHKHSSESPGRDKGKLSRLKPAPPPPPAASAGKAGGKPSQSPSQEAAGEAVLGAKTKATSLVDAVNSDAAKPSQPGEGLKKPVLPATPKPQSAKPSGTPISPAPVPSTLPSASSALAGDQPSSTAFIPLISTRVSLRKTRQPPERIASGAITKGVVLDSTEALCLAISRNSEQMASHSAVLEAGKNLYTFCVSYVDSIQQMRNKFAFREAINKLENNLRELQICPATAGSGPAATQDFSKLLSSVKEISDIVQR

| Substance | Relative phosphorylation (% of highest signal) (FES^WT) | Relative phosphorylation (% of highest signal) (CSK) | Relative phosphorylation (% of highest signal) (SYK) | Relative phosphorylation (% of highest signal) (LYN) | Relative phosphorylation (% of highest signal) (ABL1) | Relative phosphorylation (% of highest signal) (FGR) |
| --- | --- | --- | --- | --- | --- | --- |
| MBP_263_275 (GRASDYKSAHKGF; UniProt P02686 263-275, looked up, fragment) | -0.25 % of highest signal | -0.5 % of highest signal | -0.355 % of highest signal | -0.172 % of highest signal | -0.13 % of highest signal | -0.9 % of highest signal |
| MK01_198_210 (IMLNSKGYTKSID; UniProt P28482 198-210, looked up, fragment) | -0.6 % of highest signal | -0.8 % of highest signal | -1.2 % of highest signal | -0.184 % of highest signal | -0.5 % of highest signal | -3.8 % of highest signal |
| NPT2A_501_513 (AKALGKRTAKYRW; UniProt Q06495 501-513, looked up, fragment) | 0.553 % of highest signal | -0.4 % of highest signal | -0.846 % of highest signal | -0.318 % of highest signal | -0.2 % of highest signal | -2.1 % of highest signal |
| NTRK2_509_521 (PVIENPQYFGITN; UniProt Q16620 509-521, looked up, fragment) | -0.566 % of highest signal | -0.422 % of highest signal | 0.0821 % of highest signal | 0.113 % of highest signal | -0.0217 % of highest signal | -1.0 % of highest signal |
| ODBA_340_352_D340K (KDSSAYRSVDEVN; UniProt P12694 340-352, looked up, variant D340K) | -0.457 % of highest signal | 10.4 % of highest signal | 1.5 % of highest signal | 0.112 % of highest signal | 5.2 % of highest signal | -0.358 % of highest signal |
| PERI_458_470 (QRSELDKSSAHSY; UniProt P41219 458-470, looked up, fragment) | -0.5 % of highest signal | -0.632 % of highest signal | -1.3 % of highest signal | -0.0931 % of highest signal | -0.4 % of highest signal | -1.2 % of highest signal |
| STA5A_687_699 (LAKAVDGYVKPQI; UniProt P42229 687-699, looked up, fragment) | -0.46 % of highest signal | -1.3 % of highest signal | -1.9 % of highest signal | -0.4 % of highest signal | -0.439 % of highest signal | -3.6 % of highest signal |
| STAT1_694_706 (DGPKGTGYIKTEL; UniProt P42224 694-706, looked up, fragment) | -0.5 % of highest signal | -1.4 % of highest signal | -1.9 % of highest signal | -0.0105 % of highest signal | -0.6 % of highest signal | -3.3 % of highest signal |
| STAT4_686_698 (TERGDKGYVPSVF; UniProt Q14765 686-698, looked up, fragment) | -0.247 % of highest signal | -0.9 % of highest signal | -1.2 % of highest signal | -0.165 % of highest signal | -0.7 % of highest signal | -4.1 % of highest signal |
| STAT6_634_646 (MGKDGRGYVPATI; UniProt P42226 634-646, looked up, fragment) | -0.355 % of highest signal | -1.1 % of highest signal | -2.2 % of highest signal | -0.3 % of highest signal | -0.6 % of highest signal | -4.7 % of highest signal |
| VGFR1_1046_1058_Y1048F (DIFKNPDYVRKGD; UniProt P17948 1046-1058, looked up, variant Y1048F) | -0.452 % of highest signal | -0.9 % of highest signal | 1.1 % of highest signal | -0.0478 % of highest signal | -0.449 % of highest signal | -2.7 % of highest signal |
| VGFR1_1049_1061 (KNPDYVRKGDTRL; UniProt P17948 1049-1061, looked up, fragment) | -0.333 % of highest signal | -0.8 % of highest signal | -0.167 % of highest signal | -0.274 % of highest signal | -0.36 % of highest signal | -2.4 % of highest signal |
| VGFR1_1162_1174 (VQQDGKDYIPINA; UniProt P17948 1162-1174, looked up, fragment) | 2.3 % of highest signal | -0.737 % of highest signal | 1.8 % of highest signal | -0.153 % of highest signal | -0.426 % of highest signal | -3.4 % of highest signal |
| VGFR1_1206_1218 (GSSDDVRYVNAFK; UniProt P17948 1206-1218, looked up, fragment) | -0.0198 % of highest signal | -0.459 % of highest signal | -0.354 % of highest signal | -0.1 % of highest signal | 0.0233 % of highest signal | -1.0 % of highest signal |
| VGFR1_1235_1247 (ATSMFDDYQGDSS; UniProt P17948 1235-1247, looked up, fragment) | -0.11 % of highest signal | -0.5 % of highest signal | 17.6 % of highest signal | -0.0433 % of highest signal | -0.543 % of highest signal | 0.9 % of highest signal |
| VGFR1_1320_1332_C1320K/C1321K (KKSPPPDYNSVVL; UniProt P17948 1320-1332, looked up, variant C1320K C1321K) | 2.0 % of highest signal | -0.847 % of highest signal | 4.3 % of highest signal | -0.28 % of highest signal | -0.0535 % of highest signal | -2.8 % of highest signal |
| VGFR2_944_956 (RFRQGKDYVGAIP; UniProt P35968 944-956, looked up, fragment) | 0.741 % of highest signal | -0.8 % of highest signal | 0.9 % of highest signal | -0.364 % of highest signal | -0.378 % of highest signal | -1.0 % of highest signal |
| VGFR2_989_1001 (EEAPEDLYKDFLT; UniProt P35968 989-1001, looked up, fragment) | 10.0 % of highest signal | 30.5 % of highest signal | 15.3 % of highest signal | 2.8 % of highest signal | 2.3 % of highest signal | 21.5 % of highest signal |
| VGFR2_1046_1058 (DFGLARDIYKDPD; UniProt P35968 1046-1058, looked up, fragment) | 1.1 % of highest signal | 2.2 % of highest signal | 0.6 % of highest signal | 0.243 % of highest signal | -0.11 % of highest signal | 1.2 % of highest signal |
